B1: VAMP4 (parent)
chain: FLRGPSGPRFGPRNDKIKHVQNQV

Variants of: B1
Assay: protein stability index of a GFP-peptide fusion (GPS, HEK-293T) (PSI 1-6); higher = more stable
Conditions: c terminus: a fixed tail appended
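Further: lentivirally expressed fusions sorted by FACS into six bins by GFP to DsRed ratio, PSI derived from sequencing read proportions per bin multiplied by bin number.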

Protein stability index: each site, then its substitutions
G11: W 2.45 | N 2.95 | V 1.97 | L 2.47 | Q 2.78 | R 2.34 | S 2.65 | M 2.52 | Y 2.16 | P 2.91 | T 2.18
K18: A 3.24 | Q 3.34 | D 2.74 | M 2.27 | I 2.31 | E 3.06 | H 2.73 | G 2.88 | C 2.04 | Y 2.15 | N 2.83 | L 1.93 | W 1.48 | V 2.91 | S 3.11 | R 1.75 | T 2.47 | P 3.1
V20: R 3.26 | L 2.9 | D 3.72 | H 3.3 | N 2.91 | Q 2.24 | E 3.91 | A 2.63 | I 2.69 | K 3.23 | C 2.15 | G 2.62
D15: H 3.02 | A 2.6 | I 3.2 | R 2.69 | E 3 | N 2.7 | G 2.08 | V 2.85 | Q 2.5 | F 2.01 | T 2.26 | P 3.23 | C 2.5 | K 2.23 | W 1.39 | S 2.19 | Y 2.1 | L 2.17 | M 2.05
I17: D 3.57 | K 2.81 | F 2.81 | P 2.84 | C 2.87 | V 2.5 | S 2.34 | E 4.11 | Q 2.72 | H 3.42 | L 2.78 | T 3.16 | W 1.53 | A 2.88 | N 3.54 | R 3
N14: L 2.55 | P 3.04 | R 2.68 | S 2.67 | G 2.92 | H 2.73 | E 3.39 | Q 2.91 | K 2.41 | F 2.29 | W 2.25 | T 2.7 | M 2.15 | V 2.73 | I 2.2 | Y 2.04 | C 2.73 | A 2.35 | D 2.96
P12: Q 2.34 | W 1.88 | D 3.08 | L 2.2 | V 2.86 | G 2.99 | E 3.63 | F 2.7 | I 2.87 | R 2.59 | T 3.37 | C 2.13 | S 3.27 | N 3.12 | H 2.75 | K 2.89 | M 2.61 | Y 2.75 | A 2.54
H19: T 1.54 | S 2.7 | G 2.86 | L 2.72 | R 2.03 | F 1.8 | Y 1.93 | K 2.35 | V 2.95 | W 1.57 | E 2.7 | M 2.6 | I 2.55 | Q 2.42 | A 2.81
K16: L 2.34 | F 2.25 | H 2.48 | E 3.18 | N 3.18 | G 3.33 | S 2.81 | I 2.15 | A 3 | Y 2.28 | V 2.46 | W 1.86 | D 3.13 | C 2.18 | P 2.76 | R 2.75 | M 2.42 | Q 3.11 | T 2.74
R13: Y 2.31 | P 3.06 | I 2.43 | W 1.87 | N 3.74 | V 2.62 | G 2.74 | F 2.35 | K 2.58 | T 2.8 | Q 3.6 | H 2.17 | M 2.89 | C 2.33 | L 2.02 | D 3.39 | S 3.11 | A 2.32 | E 3.15

From the supplement of paper PMC10567573
